experiment: yeast display, Sf9 membrane polyspecificity reagent, FACS + sequencing; frameworks hold sequencing errors
Summary of the method: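 Galactose induction of a Saccharomyces cerevisiae BJ5465 synthetic nanobody display library ran 36–48 hours. The cells were then stained for 1 hour at 4 °C with 10% biotinylated, detergent-solubilized Sf9 membrane reagent, pulled down on streptavidin microbeads and FACS-sorted into low and high (top ~1%) gates on expression and reagent-binding fluorescence. Labels for polyreactivity follow the gate of origin.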

| Sequence | polyreactivity (PSR sort gate) |
| --- | --- |
| QVQLVETGGGLVHAGGSLRLSCAASGRTFEPNAMGWYRQAPGKERELVATISYSGGRTNYADSVKGRFTISRDNAKNTVYLQMKILKPEDTAVYYCATRTYYRRVCIRDFWGQGTLVTVSS | high polyreactivity |
| QVQLVETGGGLVQAGGRLRLSCAASGRIFVYYDMGWSIQAPGKERELVAAITSGGDRTYYADSVKGRFTISRDNAKNTVYLQMNSLKPEDTAVYYCNTYYYPYGYWGQGTQVTVSS | high polyreactivity |
| QVQLVETGGGLVQAGGSHRLSCAASVRTLYKNAMGWYRQEPGKERELVAAISVSGGRTYYADSVKGRFTISRDNAKNTVYFQMNSLKPEDTAVYYCATRLYPISKYGYWGQGTQVTVSS | high polyreactivity |
| QVQLVETGGGLVQAGGSLRLICAASASTFGYYAMGWYRQAPGKERELVAGIRYRGGSTSYADSVKGRFTISRDNAKNTVYLQLNSLKREDTAVYYCANGIYRGRTSSFRMGYWGQVTQVTVSS | low polyreactivity |
| QVQLVETGGGLVQAGGSLRLSCAASGFIFIHNAMGWYRQAPGKERELVAAISYSGGSTYYADSVKGRFTISRDNEKNTVYLQMNSLKPEDTAVYYCAARGALHHWYRYDDWGQGTQVTVSS | low polyreactivity |
| QVQLVETGGGLVQAGGSLRLSCAASGFTFRPYVMGWYRQPPGKERELVAGITWDGDSTYYADSVKGRFTISRDNPKNTVYLQMNSLKPEDTAVYYCAAEDADWVSQYYYWGQGTQVTVSS | high polyreactivity |
| QVQLVETGGGLVQAGGSLRLSCAASGFTFWYNDMGWYRQPPGKEREFVAAINSGGSTNDADSVKGRFTISRDNAKNTVYLQMNSLKPEDTAVYYCNADWFTPAQPWYRYFIRYDYWGQGTQVTVSS | low polyreactivity |
| QVQLVETGGGLVQAGGSLRLSCAASGFTILGYDMGWYRQAHGKERELVAAFDYSGGSTYYADSVKGRFTISRDNAQNTVYLQMNSLKPEDTAVYYCAAYTGKGRAYFRWMDYWGQGTQVTVSS | high polyreactivity |
| QVQLVETGGGLVQAGGSLRLSCAASGFTIQRYAMGWYRQAPGKEREFVAAITSGGSTYYADSVKGRFTISRDNAKNTVYLQMNSLKPEDTAVYYCATRAVWSSWGRRYDSWGQGTQVTVSS | high polyreactivity |
| QVQLVETGGGLVQAGGSLRLSCAASGFTSLTYAMGWYRQAPGKERELVAAITFSGGSTYYADSVKGRFTISRDNAKNTVYLQMNSLKPEDTAVYYCARDGLWYNAIWEYDYWGLGTQVTVSS | high polyreactivity |
| QVQLVETGGGLVQAGGSLRLSCAASGIIFYGYAMGWYRQAPGKERELVAAITYSGGSTYYADSVKGRFTISRDNAKNTVYLQMNSLKPEDTAVYYCRYDIWVWWSGAYDYWGQGTQVTVSS | low polyreactivity |
| QVQLVETGGGLVQAGGSLRLSCAASGIIIGYYAMGWYRQAPGKEREMVAAINQDGSSTYYADSVKGRFTISRDNAKNTVYLQMNSLTPEDTAVYYCNARGVPRQDARMGYWGQGTQVTVSS | low polyreactivity |
| QVQLVETGGGLVQAGGSLRLSCAASGITFSDNAMGWYIQAPVKERELVADISYGGGNTYYADSVQGRFTISRDNAKYTVYLQMNSLKPEDTAVYYCAAVYYFLWYGYYLALDYWGQGTQVTVSS | high polyreactivity |
| QVQLVETGGGLVQAGGSLRLSCAASGLIFRNNVMGWYRQAPGKERELVAAIRESGGRTYYADSVKGRFTISRDNAKNTVYLQMNSLKPEDTAVYYCAADSRVGFGRLYGYWGQGTQVTVSS | high polyreactivity |
| QVQLVETGGGLVQAGGSLRLSCAASGNMFVTYDMGWYRKAPGKERELVASISWNGGSTNYADSVKGRFTISRDNAKNTVYLQMNSLKPEDTAVYYCAVDYARDKGYPYGYWGQGTQVTVSS | low polyreactivity |
| QVQLVETGGGLVQAGGSLRLSCAASGRIFEIYAMGWYRQAPGKERELVAAIDESGGSTYYADSVKGRFTISRDNGKNTVYLQMNSLKPEDTAVYYCATDDTWTITYGWYWFTYEYWGQCTQVTVSS | low polyreactivity |
| QVQLVETGGGLVQAGGSLRLSCAASGRIFKRNTMGWYRQAPGKEREFVASITFSGGSTNYADSVKGRFTISRDNAKNTVYLQMNSLKPEDTAVYYCAARDYHYSTYDYWGQGTQVTVSS | low polyreactivity |
| QVQLVETGGGLVQAGGSLRLSCAASGRIFRFYDMGWYRQAPGQERELVATINPTGGSTSYADSVKGRFTISRDNAKNTVYLQMNSLNPEDTAVYYCAADSWYSVRKTWSRSGSFPFDYWGQGTQVTVSS | high polyreactivity |
| QVQLVETGGGLVQAGGSLRLSCAASGRIFWLYAMGWYRQAPGKERELVASISSGGTTHYADSVKGRFTISRDNAKNTVYLQMNSLKPEDTAVYYCAVRPYYSWAYYYWGQGTQVTLSS | high polyreactivity |
| QVQLVETGGGLVQAGGSLRLSCAASGRTFARNAMGWYRQAPGKERELVAAISRRGGNTYYADSVKGRFTISRDNAKNTVYLQMNSLKPEDTAVYYCAVRWPSARIPVKLDYWGQGTQVTVSS | high polyreactivity |
| QVQLVETGGGLVQAGGSLRLSCAASGRTFARYAMGWYRQAPGTERELVAAISWGGTRTYYADSVKGRFTISRDNAKNTVYLQMNSLKPEDTAVYYCAATYLYRDQPKWGGFAYTYGLWGQGTQVTVSS | high polyreactivity |
| QVQLVETGGGLVQAGGSLRLSCAASGRTFTRYAMGWYRQAPGKERELVAAISSSGASTYYADSVKGRFTISRDNAKNTVYLQMNSLKPEDTAVYYCAAKQTRPSGFGYWGQGTQVTVSS | high polyreactivity |

| Sequence | polyreactivity (PSR sort gate) |
| --- | --- |
| QVQLVETGGGLVQAGGSLRLSCAASGRTIRKYAMGWYRQAPGKERELVAAISWSGGSTYYANSVKGRFTISRDNAKNTVYLQMKSLKPVDTEVYYCAAVPVHTGSLYWGFTTGYDYWGQGTQVTVSS | low polyreactivity |
| QVQLVETGGGLVQAGGSLRLSCAASGRTYRFNAMGWYRQAPGKERELVASINSGVRTYYADSVKGRFTISRDNAKNTVYLQMNSLKPEDSAVYYCAARYRVRYYERDYWGQGTQVTVSS | high polyreactivity |
| QVQLVETGGGLVQAGGSLRLSCAASGRTYVYNAMGWYRQAPGKERELVAAIDGGGDRTYYADSVKGRFTISRDNAKNTVYLQMNSLKPEDTAVYYCARDPGDTYYYSYQEGDYWGQGTQVTVSS | low polyreactivity |
| QVQLVETGGGLVQAGGSLRLSCAASGSIFGFYAMGWYRQAPGKERELVAAIDSGDSTNYADSVKGRFTISRDNAKNTVYLQMNSLKPEDTAVYYCYAEAWWYFWFDYWGQGTQVTVSS | low polyreactivity |
| QVQLVETGGGLVQAGGSLRLSCAASGSIFIWYAMGWYRQAPGKERELVAAIRSGGSTYYADSVKGRFTISRDNAKNTVYFQMNRLKPEDTAVYYCAKVLSWRGNRYNYWGQGTQVTVSS | low polyreactivity |
| QVQLVETGGGLVQAGGSLRLSCAASGSIFYPNAMGWYRQAPGKERELVAAISSSGGTNYADSVKGRFTISRDNAKNTVYLQMNSLKPEDTAVYYCNARDKVRYRYSRMDYWGQGTQVTVSS | low polyreactivity |
| QVQLVETGGGLVQAGGSLRLSCAASGSTFHGYAMGWYRQEPGKERELVAAITSGDSTNYADSVKGRFTISRDNAKNTVYLQMNSLKPEDTAVYYCNAEGSSVLTGYWGYPPYWDTYDYWGQGTQVTVSS | low polyreactivity |
| QVQLVETGGGLVQAGGSLRLSCAASGSTFQLYAMGWYRQAPGKERDFVAAISNGGRTNYADSVKGRFTISRDNAKNTVYLQMTSLKPEDTAVYYCNADQVWWSFDRVLVGYEYWGKGTQVTVSS | low polyreactivity |
| QVQLVETGGGLVQAGGSLRLSCAASGSTFYAYVMGWYRQAPGKERELVAAITSAGSTYYADSVKGRFTISLDNAKNTVYLQMNSLKPEDTAVYYCAADAYTESAYYKYDYWGQGTQVTVSS | low polyreactivity |
| QVQLVETGGGLVQAGGSLRLSCAASGSTFYHNAMGWYRQAPGKERELVAAISIGGGRTYYADSVKGRFTISRDNAKNTVYLQMNSLKPEDTAVYYCAAGSPAVYGRGFNYWGQGTQVTVSS | low polyreactivity |
| QVQLVETGGGLVQAGGSLRLSCAASGSTFYRNTKGCYRQAPGKEREFVAGISDRGTSTYYADSVKGRFTISRDNAKNTVYLQMNSLKPEDTAVYYCNKRSWPAYVHKYDYWGQGTQVTVSS | low polyreactivity |
| QVQLVETGGGLVQAGGSLRLSCAASGSTVRFNAMGWYRQAPGKERELVAVIRWRGGTTYYADSVKGRFTISRDNAKNTVYLQMNSLKPVDTAVYYCNADYWFSYTWHGSYTVGYWGQGTQVTVSS | high polyreactivity |
| QVQLVETGGGLVQAGGSLRLSCAASGYILINAMGLYRQAPGKERELVASISWSSGSTYYADSVKGRFTISRDNAKNTVFLQMNSLKPEDTAVYYCAATAWDRWSYRYEYWGQGTQVTVSS | low polyreactivity |
| QVQLVETGGGLVQAGGSLRLSCAAYGRIFAIYAMGWYRQAPGKDRELVAAISRSGGSTSYADSVKGRFTISRDNAKNTVYLQMNSLKPEDTAVYYCARRITYYQLSRQRYDYWGQGTQVTVSS | high polyreactivity |
| QVQLVETGGGLVQAGGSLRLSCADSGRIFRYYVMGWYRQAPGKERELVAAISRSGGSTYYADSVKGRFTISRDNAKNTVYLQMNSLKPEETAVYYCAKRVSTYGFSGYDYWGQGTQVTVSS | high polyreactivity |
| QVQLVETGGGLVQAGGSLRLSCAPSGIIISHYAKGWYRQAPGKETELVAAISSRGGSTYYADSVKGRFTISRDIAKNTVYLQMNSLKPEDTAVYYCATTDPYDSSYYIYYYWGQGTQVTVSS | high polyreactivity |
| QVQLVETGGGLVQAGGSLRLSCAPSGINFTGYDMGWYRQAPGKERELVAAITSGGSTYYADSVKGRFTISRDNAKNTVYLQMNSLKPEDTAVYYCAARAKLTGYWGQGTQVTVSS | high polyreactivity |
| QVQLVETGGGLVQAGGSLRLSCDASGRIFGGYAMGWYRKAPGKERELVAAISASGGRTYYADSVKGRFTISRDNAKNTVYLQMNSLKPEDNAVYYCAASFRRTSLRWLGEYWGQGTQVTVSS | high polyreactivity |
| QVQLVETGGGLVQAGGSLRLSSAASGFTFGTYAMGWYRQAPGKERELVAAITGSGVRTYYADSVKGRFTISRDIAKYTVFLQMNSLKPEDTAVYYCAADYVVPLAFWTFRFDYWGQGTQVTVSS | low polyreactivity |
| QVQLVETGGGLVQAGGSLSLSCAASGSTSSRYAMGWYRQAPGKEMELVARINWNGGSTYYADSVKGRFTISRDNAKNTVYLQMNSLKPEDTAVYYCAADSFGITYVSYVSIYDFDYWGQGTQLTVSS | low polyreactivity |
| QVQLVETGGGLVQAGGTLRLSCAASGRIFRRYAMVWYRQAPGKEREFVAAITDGSTYYADSVKGRFTISRDNAKNTVYLQMNSLNPEDPAVYYCATQFGWSYSRRFYYWGQGTQVTVSS | high polyreactivity |

Reference: the nanobody polyreactivity screen of Harvey et al. (2022)
